Measurements: the supplement of paper PMC5998384

Legend:
[1] = system: HeLa Kyoto; experiment: thermal stability score vs G1/S (z-score of summed log2 fold changes over temperatures); higher = more thermally stable than in G1/S
[2] = system: HeLa Kyoto; experiment: solubility change mitosis vs G1/S (difference of NP-40 vs SDS log2 ratios) (log2 ratio difference); higher = more soluble in mitosis
[3] = system: HeLa Kyoto; experiment: solubility in G1/S (NP-40 vs SDS abundance) (log2 ratio); higher = more soluble; conditions: cell cycle stage: G1/S
[4] = system: HeLa Kyoto; experiment: melting temperature (median over replicates), in situ; higher = more thermally stable
[5] = cell cycle stage: early G1 (4.5 h after nocodazole release)
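For melting temperature (median over replicates), in situ in this document: HeLa Kyoto cells synchronized by double thymidine or nocodazole block, proteins quantified by TMT10plex mass spectrometry, three independent biological replicates.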
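For solubility change mitosis vs G1/S (difference of NP-40 vs SDS log2 ratios) in this document: synchronized HeLa Kyoto cells (double thymidine block for G1/S, nocodazole release for mitosis), protein amounts in NP-40 versus SDS lysates quantified by mass spectrometry, three biological replicates.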
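For solubility in G1/S (NP-40 vs SDS abundance) in this document: HeLa Kyoto cells arrested at G1/S by double thymidine block, proteins quantified by TMT10plex mass spectrometry in mild NP-40 versus SDS extracts, three biological replicates.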
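For thermal stability score vs G1/S (z-score of summed log2 fold changes over temperatures) in this document: synchronized HeLa Kyoto cells, proteins quantified by TMT10plex mass spectrometry, three biological replicates, mitosis taken 0.5 h after nocodazole release, G1/S directly after double thymidine block.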

Substance | thermal stability score [1, 5] | thermal stability score ([1]; cell cycle stage: mitosis) | solubility change mitosis (log2) [2] | solubility in G1/S (log2) [3] | melting temperature ([4]; cell cycle stage: G1/S) | melting temperature ([4]; cell cycle stage: mitosis)
MDISTRSKDPGSAERTAQKRKFPSPPHSSNGHSPQDTSTSPIKKKKKPGLLNSNNKEQSELRHGPFYYMKQPLTTDPVDVVPQDGRNDFYCWVCHREGQVLCCELCPRVYHAKCLRLTSEPEGDWFCPECEKITVAECIETQSKAMTMLTIEQLSYLLKFAIQKMKQPGTDAFQKPVPLEQHPDYAEYIFHPMDLCTLEKNAKKKMYGCTEAFLADAKWILHNCIIYNGGNHKLTQIAKVVIKICEHEMNEIEVCPECYLAACQKRDNWFCEPCSNPHPLVWAKLKGFPFWPAKALRDKDGQVDARFFGQHDRAWVPINNCYLMSKEIPFSVKKTKSIFNSAMQEMEVYVENIRRKFGVFNYSPFRTPYTPNSQYQMLLDPTNPSAGTAKIDKQEKVKLNFDMTASPKILMSKPVLSGGTGRRISLSDMPRSPMSTNSSVHTGSDVEQDAEKKATSSHFSASEESMDFLDKSTASPASTKTGQAGSLSGSPKPFSPQLSAPITTKTDKTSTTGSILNLNLDRSKAEMDLKELSESVQQQSTPVPLISPKRQIRSRFQLNLDKTIESCKAQLGINEISEDVYTAVEHSDSEDSEKSDSSDSEYISDDEQKSKNEPEDTEDKEGCQMDKEPSAVKKKPKPTNPVEIKEELKSTSPASEKADPGAVKDKASPEPEKDFSEKAKPSPHPIKDKLKGKDETDSPTVHLGLDSDSESELVIDLGEDHSGREGRKNKKEPKEPSPKQDVVGKTPPSTTVGSHSPPETPVLTRSSAQTSAAGATATTSTSSTVTVTAPAPAATGSPVKKQRPLLPKETAPAVQRVVWNSSSKFQTSSQKWHMQKMQRQQQQQQQQNQQQQPQSSQGTRYQTRQAVKAVQQKEITQSPSTSTITLVTSTQSSPLVTSSGSMSTLVSSVNADLPIATASADVAADIAKYTSKMMDAIKGTMTEIYNDLSKNTTGSTIAEIRRLRIEIEKLQWLHQQELSEMKHNLELTMAEMRQSLEQERDRLIAEVKKQLELEKQQAVDETKKKQWCANCKKEAIFYCCWNTSYCDYPCQQAHWPEHMKSCTQSATAPQQEADAEVNTETLNKSSQGSSSSTQSAPSETASASKEKETSAEKSKESGSTLDLSGSRETPSSILLGSNQGSDHSRSNKSSWSSSDEKRGSTRSDHNTSTSTKSLLPKESRLDTFWD [ZMYND8] | 1.53 | 3.16 | 0.163 | -0.387 | 48.5 °C | 50.2 °C
MPRDNMASLIQRIARQACLTFRGSGGGRGASDRDAASGPEAPMQPGFPENLSKLKSLLTQLRAEDLNIAPRKATLQPLPPNLPPVTYMHIYETDGFSLGVFLLKSGTSIPLHDHPGMHGMLKVLYGTVRISCMDKLDAGGGQRPRALPPEQQFEPPLQPREREAVRPGVLRSRAEYTEASGPCILTPHRDNLHQIDAVEGPAAFLDILAPPYDPDDGRDCHYYRVLEPVRPKEASSSACDLPREVWLLETPQADDFWCEGEPYPGPKVFP [ADO] | -2.72 | -3.58 | 0.0512 | 0.474 | 54.1 °C | 53.7 °C
MRRAALRLCALGKGQLTPGRGLTQGPQNPKKQGIFHIHEVRDKLREIVGASTNWRDHVKAMEERKLLHSFLAKSQDGLPPRRMKDSYIEVLLPLGSEPELREKYLTVQNTVRFGRILEDLDSLGVLICYMHNKIHSAKMSPLSIVTALVDKIDMCKKSLSPEQDIKFSGHVSWVGKTSMEVKMQMFQLHGDEFCPVLDATFVMVARDSENKGPAFVNPLIPESPEEEELFRQGELNKGRRIAFSSTSLLKMAPSAEERTTIHEMFLSTLDPKTISFRSRVLPSNAVWMENSKLKSLEICHPQERNIFNRIFGGFLMRKAYELAWATACSFGGSRPFVVAVDDIMFQKPVEVGSLLFLSSQVCFTQNNYIQVRVHSEVASLQEKQHTTTNVFHFTFMSEKEVPLVFPKTYGESMLYLDGQRHFNSMSGPATLRKDYLVEP [ACOT9] | -1.25 | 1.48 | -0.0152 | -0.111 | 52.9 °C | 53.7 °C
MAAAALGQIWARKLLSVPWLLCGPRRYASSSFKAADLQLEMTQKPHKKPGPGEPLVFGKTFTDHMLMVEWNDKGWGQPRIQPFQNLTLHPASSSLHYSLQLFEGMKAFKGKDQQVRLFRPWLNMDRMLRSAMRLCLPSFDKLELLECIRRLIEVDKDWVPDAAGTSLYVRPVLIGNEPSLGVSQPTRALLFVILCPVGAYFPGGSVTPVSLLADPAFIRAWVGGVGNYKLGGNYGPTVLVQQEALKRGCEQVLWLYGPDHQLTEVGTMNIFVYWTHEDGVLELVTPPLNGVILPGVVRQSLLDMAQTWGEFRVVERTITMKQLLRALEEGRVREVFGSGTACQVCPVHRILYKDRNLHIPTMENGPELILRFQKELKEIQYGIRAHEWMFPV [BCAT2] | -0.771 | -0.0554 | -0.156 | -0.077 | 55.4 °C | 55.1 °C
MRAVLDTADIAIVALYFILVMCIGFFAMWKSNRSTVSGYFLAGRSMTWVAIGASLFVSNIGSEHFIGLAGSGAASGFAVGAWEFNALLLLQLLGWVFIPIYIRSGVYTMPEYLSKRFGGHRIQVYFAALSLILYIFTKLSVDLYSGALFIQESLGWNLYVSVILLIGMTALLTVTGGLVAVIYTDTLQALLMIIGALTLMIISIMEIGGFEEVKRRYMLASPDVTSILLTYNLSNTNSCNVSPKKEALKMLRNPTDEDVPWPGFILGQTPASVWYWCADQVIVQRVLAAKNIAHAKGSTLMAGFLKLLPMFIIVVPGMISRILFTDDIACINPEHCMLVCGSRAGCSNIAYPRLVMKLVPVGLRGLMMAVMIAALMSDLDSIFNSASTIFTLDVYKLIRKSASSRELMIVGRIFVAFMVVISIAWVPIIVEMQGGQMYLYIQEVADYLTPPVAALFLLAIFWKRCNEQGAFYGGMAGFVLGAVRLILAFAYRAPECDQPDNRPGFIKDIHYMYVATGLFWVTGLITVIVSLLTPPPTKEQIRTTTFWSKKNLVVKENCSPKEEPYKMQEKSILRCSENNETINHIIPNGKSEDSIKGLQPEDVNLLVTCREEGNPVASLGHSEAETPVDAYSNGQAALMGEKERKKETDDGGRYWKFIDWFCGFKSKSLSKRSLRDLMEEEAVCLQMLEETRQVKVILNIGLFAVCSLGIFMFVYFSL [SLC5A3] | 0.7 | 0.41 | 0.0469 | -0.218 | 57.3 °C | 55.9 °C
MEGLLHYINPAHAISLLSALNEERLKGQLCDVLLIVGDQKFRAHKNVLAASSEYFQSLFTNKENESQTVFQLDFCEPDAFDNVLNYIYSSSLFVEKSSLAAVQELGYSLGISFLTNIVSKTPQAPFPTCPNRKKVFVEDDENSSQKRSVIVCQSRNEAQGKTVSQNQPDVSHTSRPSPSIAVKANTNKPHVPKPIEPLHNLSLTEKSWPKDSSVVYAKSLEHSGSLDDPNRISLVKRNAVLPSKPLQDREAMDDKPGVSGQLPKGKALELALKRPRPPVLSVCSSSETPYLLKETNKGNGQGEDRNLLYYSKLGLVIPSSGSGSGNQSIDRSGPLVKSLLRRSLSMDSQVPVYSPSIDLKSSQGSSSVSSDAPGNVLCALSQKSSLKDCSEKTALDDRPQVLQPHRLRSFSASQSTDREGASPVTEVRIKTEPSSPLSDPSDIIRVTVGDAATTAAASSSSVTRDLSLKTEDDQKDMSRLPAKRRFQADRRLPFKKLKVNEHGSPVSEDNFEEGSSPTLLDADFPDSDLNKDEFGELEGTRPNKKFKCKHCLKIFRSTAGLHRHVNMYHNPEKPYACDICHKRFHTNFKVWTHCQTQHGIVKNPSPASSSHAVLDEKFQRKLIDIVREREIKKALIIKLRRGKPGFQGQSSSQAQQVIKRNLRSRAKGAYICTYCGKAYRFLSQFKQHIKMHPGEKPLGVNKVAKPKEHAPLASPVENKEVYQCRLCNAKLSSLLEQGSHERLCRNAAVCPYCSLRFFSPELKQEHESKCEYKKLTCLECMRTFKSSFSIWRHQVEVHNQNNMAPTENFSLPVLDHNGDVTGSSRPQSQPEPNKVNHIVTTKDDNVFSDSSEQVNFDSEDSSCLPEDLSLSKQLKIQVKEEPVEEAEEEAPEASTAPKEAGPSKEASLWPCEKCGKMFTVHKQLERHQELLCSVKPFICHVCNKAFRTNFRLWSHFQSHMSQASEESAHKESEVCPVPTNSPSPPPLPPPPPLPKIQPLEPDSPTGLSENPTPATEKLFVPQESDTLFYHAPPLSAITFKRQFMCKLCHRTFKTAFSLWSHEQTHN [ZBTB21] | 0.647 | 0.374 | -0.0564 | -0.0999 | – | 51.7 °C
MFSRAGVAGLSAWTLQPQWIQVRNMATLKDITRRLKSIKNIQKITKSMKMVAAAKYARAERELKPARIYGLGSLALYEKADIKGPEDKKKHLLIGVSSDRGLCGAIHSSIAKQMKSEVATLTAAGKEVMLVGIGDKIRGILYRTHSDQFLVAFKEVGRKPPTFGDASVIALELLNSGYEFDEGSIIFNKFRSVISYKTEEKPIFSLNTVASADSMSIYDDIDADVLQNYQEYNLANIIYYSLKESTTSEQSARMTAMDNASKNASEMIDKLTLTFNRTRQAVITKELIEIISGAAALD [ATP5C1] | -0.727 | -0.47 | -0.0222 | 0.283 | 58 °C | 56.5 °C
MPRPGSAQRWAAVAGRWGCRLLALLLLVPGPGGASEITFELPDNAKQCFYEDIAQGTKCTLEFQVITGGHYDVDCRLEDPDGKVLYKEMKKQYDSFTFTASKNGTYKFCFSNEFSTFTHKTVYFDFQVGEDPPLFPSENRVSALTQMESACVSIHEALKSVIDYQTHFRLREAQGRSRAEDLNTRVAYWSVGEALILLVVSIGQVFLLKSFFSDKRTTTTRVGS [TMED7] | 2.43 | 0.528 | -0.174 | -0.0739 | 57.2 °C | 56.4 °C
MAAPLRIQSDWAQALRKDEGEAWLSCHPPGKPSLYGSLTCQGIGLDGIPEVTASEGFTVNEINKKSIHISCPKENASSKFLAPYTTFSRIHTKSITCLDISSRGGLGVSSSTDGTMKIWQASNGELRRVLEGHVFDVNCCRFFPSGLVVLSGGMDAQLKIWSAEDASCVVTFKGHKGGILDTAIVDRGRNVVSASRDGTARLWDCGRSACLGVLADCGSSINGVAVGAADNSINLGSPEQMPSEREVGTEAKMLLLAREDKKLQCLGLQSRQLVFLFIGSDAFNCCTFLSGFLLLAGTQDGNIYQLDVRSPRAPVQVIHRSGAPVLSLLSVRDGFIASQGDGSCFIVQQDLDYVTELTGADCDPVYKVATWEKQIYTCCRDGLVRRYQLSDL [PAAF1] | -0.462 | -0.84 | -0.218 | -0.094 | 54 °C | 53.9 °C
RAB14 | -1.89 | -3.07 | -0.0891 | 0.0669 | 60.6 °C | 58.8 °C
